Patent US20240018502A1
Positions count from the first letter of the chain named. Names may count otherwise.

B1: MTSP-1 Y59F/D96V/ins97aE/F97T/T98G/F99L/C122S/Q175L/Q192E (enzyme)
chain: VVGGTDADEGEWPWQVSLHALGQGHICGASLISPNWLVSAAHCFIDDRGFRYSDPTQWTAFLGLHDQSQRSAPGVQERRLKRIISHPFFNVTEGLDYDIALLELEKPAEYSSMVRPISLPDASHVFPAGKAIWVTGWGHTQYGGTGALILQKGEIRVINQTTCENLLPQLITPRMMCVGFLSGGVDSCEGDSGGPLSSVEADGRIFQAGVVSWGDGCAQRNKPGVYTRLPLFRDWIKENTGV
B2: MTSP-1 D96V/ins97aE/F97T/T98G/F99L/C122S/Q175L/Q192D (enzyme)
chain: B1 chain with F44Y, E189D
B3: MTSP-1 I41R/ins97aE/F97T/T98G/F99L/C122S/G151S/Q175L/Q192E (enzyme)
chain: B1 chain with I26R, F44Y, V91D, G146S
B4: MTSP-1 E24K/ins97aE/F97T/T98G/F99L/C122S/A152S/Q175L/Q192D (enzyme)
chain: B1 chain with E9K, F44Y, V91D, A147S, E189D
B5: MTSP-1 ins97aE/F97T/T98G/F99L/C122S/L153Q/Q175L/Q192D (enzyme)
chain: B1 chain with F44Y, V91D, L148Q, E189D
B6: MTSP-1 ins97aE/F97T/T98G/F99L/C122S/I136M/L155M/N170D/Q175L/Q192E (enzyme)
chain: B1 chain with F44Y, V91D, I132M, L150M, N165D
B7: MTSP-1 I41R/ins97aE/F97T/T98G/F99L/A112V/C122S/Q175L/Q192E (enzyme)
chain: B1 chain with I26R, F44Y, V91D, A108V
B8: MTSP-1 Y59F/F97T/ins97aE/T98G/F99L/C122S/Q175L/Q192D (enzyme)
chain: B1 chain with V91D, E189D
B9: MTSP-1 Y59F/G60dS/R84H/ins97aE/F97T/T98G/F99L/C122S/Q175L/Q192E/V212I (enzyme)
chain: B1 chain with G49S, R79H, V91D, V210I
B10: MTSP-1 Y59F/ins97aE/F97T/T98G/F99L/C122S/L153Q/Q175L/Q192E (enzyme)
chain: B1 chain with V91D, L148Q
B11: MTSP-1 I41R/Y59F/ins97aE/F97T/T98G/F99L/C122S/Q175L/Q192D (enzyme)
chain: B1 chain with I26R, V91D, E189D
B12: MTSP-1 I41R/Y59F/G60dS/R84H/ins97aE/F97T/T98G/F99L/C122S/Q175L/Q192E/V212I (enzyme)
chain: B1 chain with I26R, G49S, R79H, V91D, V210I
B13: MTSP-1 I41R/Y59F/ins97aE/F97T/T98G/F99L/C122S/L153Q/Q175L/Q192E (enzyme)
chain: B1 chain with I26R, V91D, L148Q
B14: MTSP-1 I41R/F97W/F99L/C122S/G151N/Q192G (enzyme)
chain: VVGGTDADEGEWPWQVSLHALGQGHRCGASLISPNWLVSAAHCYIDDRGFRYSDPTQWTAFLGLHDQSQRSAPGVQERRLKRIISHPFFNDWTLDYDIALLELEKPAEYSSMVRPISLPDASHVFPAGKAIWVTGWGHTQYGGTNALILQKGEIRVINQTTCENLLPQQITPRMMCVGFLSGGVDSCGGDSGGPLSSVEADGRIFQAGVVSWGDGCAQRNKPGVYTRLPLFRDWIKENTGV
B15: MTSP-1 F97D/ins97aV/T98P/F99L/C122S/G151N/Q192G (enzyme)
chain: B1 chain with F44Y, V91D, T92D, E93V, G94P, G146N, L170Q, E189G
B16: MTSP-1 I41D/ins97aE/F97T/T98G/F99L/C122S/Q175L/Q192E (enzyme)
chain: B1 chain with I26D, F44Y, V91D
B17: MTSP-1 I41D/ins97aE/F97T/T98G/F99L/C122S/G151N/Q175L/Q192E (enzyme)
chain: B1 chain with I26D, F44Y, V91D, G146N
B18: MTSP-1 Q38E/H40R/I41H/F97D/F99L/C122S/Q192G (enzyme)
chain: B14 chain with Q23E, H25R, R26H, W92D, N145G
B19: MTSP-1 H40R/I41H/F97D/F99L/Q175R/Q192G/D217E/K224R (enzyme)
chain: B14 chain with H25R, R26H, W92D, S117C, N145G, Q169R, D214E, K221R
B20: MTSP-1 I41R/ins97aV/F97D/T98P/F99L/C122S/G151N/Q192G (enzyme)
chain: B1 chain with I26R, F44Y, V91D, T92D, E93V, G94P, G146N, L170Q, E189G
B21: MTSP-1 ins97aV/F97D/T98P/F99L/C122S/Q175L/Q192E (enzyme)
chain: B1 chain with F44Y, V91D, T92D, E93V, G94P
B22: MTSP-1 I41R/ins97aV/F97D/T98P/F99L/C122S/G151N/Q175L/Q192E (enzyme)
chain: B1 chain with I26R, F44Y, V91D, T92D, E93V, G94P, G146N
B23: MTSP-1 Q38E/H40R/I41H/D60bE/F97D/F99L/C122S/Q192G (enzyme)
chain: B14 chain with Q23E, H25R, R26H, D47E, W92D, N145G
B24: MTSP-1 Q38E/H40R/I41H/D60bN/F97D/F99L/C122S/Q192G (enzyme)
chain: B14 chain with Q23E, H25R, R26H, D47N, W92D, N145G
B25: MTSP-1 Q38E/H40R/I41H/D60bK/F97D/F99L/C122S/Q175L/Q192G (enzyme)
chain: B14 chain with Q23E, H25R, R26H, D47K, W92D, N145G, Q169L
B26: MTSP-1 Q38E/H40R/I41H/D60bN/F60eT/F97D/F99L/C122S/Q175L/Q192G (enzyme)
chain: B14 chain with Q23E, H25R, R26H, D47N, F50T, W92D, N145G, Q169L
B27: MTSP-1 Q38R/I41S/D60bH/F60eV/F97T/ins97aE/T98G/F99L/C122S/Q175L/Q192E (enzyme)
chain: B1 chain with Q23R, I26S, F44Y, D47H, F50V, V91D
B28: MTSP-1 Q38G/H40R/I41H/D60bK/F97D/F99L/C122S/Q175L/Q192G (enzyme)
chain: B14 chain with Q23G, H25R, R26H, D47K, W92D, N145G, Q169L
B29: MTSP-1 I41D/ins97aE/F97T/T98G/F99L/C122S/G151N/Q175L/Q192E/Q209L (enzyme)
chain: B1 chain with I26D, F44Y, V91D, G146N, Q207L
B30: MTSP-1 Q38G/H40R/I41H/D60bN/F97D/F99L/C122S/Q175L/Q192G (enzyme)
chain: B14 chain with Q23G, H25R, R26H, D47N, W92D, N145G, Q169L
B31: MTSP-1 Q38R/I41S/D60bH/F60eV/ins97aE/F97T/T98G/F99L/C122S/G151N/Q175L/Q192E (enzyme)
chain: B1 chain with Q23R, I26S, F44Y, D47H, F50V, V91D, G146N
B32: MTSP-1 H40R/I41H/F97D/ins97aV/T98P/F99L/C122S/Q175R/Q192G/D217E/K224R (enzyme)
chain: VVGGTDADEGEWPWQVSLHALGQGRHCGASLISPNWLVSAAHCYIDDRGFRYSDPTQWTAFLGLHDQSQRSAPGVQERRLKRIISHPFFNDDVPLDYDIALLELEKPAEYSSMVRPISLPDASHVFPAGKAIWVTGWGHTQYGGTGALILQKGEIRVINQTTCENLLPQRITPRMMCVGFLSGGVDSCGGDSGGPLSSVEADGRIFQAGVVSWGEGCAQRNRPGVYTRLPLFRDWIKENTGV
B33: MTSP-1 Q38H/I41S/D60bA/F60eV/Y60gF/F97T/ins97aE/T98G/F99L/C122S/Q175L/Q192T (enzyme)
chain: B1 chain with Q23H, I26S, F44Y, D47A, F50V, Y52F, V91D, E189T
B34: MTSP-1 Q38E/I41S/D60bH/F60eI/F97T/ins97aE/T98G/F99L/C122S/Q175L/Q192V (enzyme)
chain: B1 chain with Q23E, I26S, F44Y, D47H, F50I, V91D, E189V
B35: MTSP-1 Q38R/I41S/D60bH/F60eI/ins97aE/F97T/T98G/F99L/C122S/Q175L/Q192E (enzyme)
chain: B1 chain with Q23R, I26S, F44Y, D47H, F50I, V91D
B36: MTSP-1 Q38E/I41S/D60bV/F60eK/F97T/ins97aE/T98G/F99L/C122S/Q175L/Q192I (enzyme)
chain: B1 chain with Q23E, I26S, F44Y, D47V, F50K, V91D, E189I
B37: MTSP-1 Q38R/I41E/ins97aE/F97T/T98G/F99L/C122S/Q175L/Q192T (enzyme)
chain: B1 chain with Q23R, I26E, F44Y, V91D, E189T

Target: plasma purified human complement protein C3 (human) (UniProt P01024)
Assay: cell-based or functional assay

plasma purified human complement protein C3 (human), sequence (P01024 23-667, chain 1 of 2): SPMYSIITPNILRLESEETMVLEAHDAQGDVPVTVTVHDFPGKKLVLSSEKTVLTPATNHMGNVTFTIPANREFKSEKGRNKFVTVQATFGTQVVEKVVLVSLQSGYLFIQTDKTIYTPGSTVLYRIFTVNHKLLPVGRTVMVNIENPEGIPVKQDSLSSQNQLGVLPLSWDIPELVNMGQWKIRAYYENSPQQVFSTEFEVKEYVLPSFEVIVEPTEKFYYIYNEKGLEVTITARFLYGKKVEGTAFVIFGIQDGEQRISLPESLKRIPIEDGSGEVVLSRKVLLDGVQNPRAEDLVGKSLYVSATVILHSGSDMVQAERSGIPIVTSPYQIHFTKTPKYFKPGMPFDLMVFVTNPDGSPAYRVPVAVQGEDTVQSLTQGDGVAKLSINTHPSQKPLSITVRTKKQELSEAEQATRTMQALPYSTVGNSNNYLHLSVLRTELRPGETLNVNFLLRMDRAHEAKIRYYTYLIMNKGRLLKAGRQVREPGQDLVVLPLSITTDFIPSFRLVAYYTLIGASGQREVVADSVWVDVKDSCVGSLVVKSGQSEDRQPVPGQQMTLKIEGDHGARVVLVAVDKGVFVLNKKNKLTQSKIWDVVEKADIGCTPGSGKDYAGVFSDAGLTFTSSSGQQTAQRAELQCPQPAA
plasma purified human complement protein C3 (human), sequence (P01024 672-1663, chain 2 of 2): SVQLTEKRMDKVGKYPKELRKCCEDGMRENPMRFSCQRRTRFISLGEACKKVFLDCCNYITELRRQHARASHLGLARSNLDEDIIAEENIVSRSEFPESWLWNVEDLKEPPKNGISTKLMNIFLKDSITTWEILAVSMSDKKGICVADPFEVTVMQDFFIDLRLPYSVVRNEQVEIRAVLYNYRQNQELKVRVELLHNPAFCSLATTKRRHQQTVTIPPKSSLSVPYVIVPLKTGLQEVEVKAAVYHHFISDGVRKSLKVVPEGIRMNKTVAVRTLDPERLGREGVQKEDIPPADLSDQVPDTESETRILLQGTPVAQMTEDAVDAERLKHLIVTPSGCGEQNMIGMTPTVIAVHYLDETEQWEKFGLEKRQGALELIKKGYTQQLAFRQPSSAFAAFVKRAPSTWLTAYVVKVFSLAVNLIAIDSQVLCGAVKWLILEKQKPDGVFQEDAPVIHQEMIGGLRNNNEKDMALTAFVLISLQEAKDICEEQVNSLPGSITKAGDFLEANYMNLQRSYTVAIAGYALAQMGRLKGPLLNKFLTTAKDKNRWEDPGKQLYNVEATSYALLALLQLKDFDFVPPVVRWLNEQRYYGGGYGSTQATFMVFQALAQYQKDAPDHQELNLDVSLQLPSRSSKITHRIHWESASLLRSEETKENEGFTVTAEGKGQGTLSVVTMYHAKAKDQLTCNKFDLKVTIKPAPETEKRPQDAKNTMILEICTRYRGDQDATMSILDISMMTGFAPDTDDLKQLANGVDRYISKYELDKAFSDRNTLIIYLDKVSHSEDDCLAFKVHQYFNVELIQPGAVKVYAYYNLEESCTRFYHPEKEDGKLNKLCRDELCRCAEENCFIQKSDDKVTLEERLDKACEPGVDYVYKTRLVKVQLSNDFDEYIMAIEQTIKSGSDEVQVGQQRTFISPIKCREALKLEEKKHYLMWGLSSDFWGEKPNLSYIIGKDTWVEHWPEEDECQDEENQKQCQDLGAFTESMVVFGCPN

| Binder | EC50 of hC3 cleavage [nM] |
| --- | --- |
| B1 | 293 |
| B2 | 258 |
| B3 | 274 |
| B4 | 291 |
| B5 | 332 |
| B6 | 429 |
| B7 | 288 |
| B8 | 289 |
| B9 | 102 |
| B10 | 237 |
| B11 | 288 |
| B12 | 143 |
| B13 | 253 |
| B14 | 97.3 |
| B15 | 87 |
| B16 | 157 |
| B17 | 148 |
| B18 | 30.9 |
| B19 | 21.9 |

| Binder | EC50 of hC3 cleavage [nM] |
| --- | --- |
| B20 | 232 |
| B21 | 158 |
| B22 | 187 |
| B23 | 28.1 |
| B24 | 39.5 |
| B25 | 15.3 |
| B26 | 9.42 |
| B27 | 35.2 |
| B28 | 20.6 |
| B29 | 103 |
| B30 | 0.867 |
| B31 | 22.5 |
| B32 | 65.8 |
| B33 | 7.46 |
| B34 | 10.4 |
| B35 | 27.3 |
| B36 | 20.4 |
| B37 | 63.3 |
